Measurements taken from patent US20220089642A1.

Target: SARS-CoV1

Fc-ACE2 full length construct (Fc fusion)
Kd: 1.84 nM | koff: 0.000435 s⁻¹ | kon: 237000 M⁻¹ s⁻¹
